Changes are numbered by the printed parent chain. One block for each binder: values may come before it.
What was measured:
Test in all cases: FACS, transfected HeLa cells
[1] = target: T1, human CEACAM5, full-length, on transfected HeLa cells (human, UniProt P06731 35-685, GPI anchor at the C-terminus on the cell surface, not carried by the letters)
T1 construct: also called TPP-4188; HeLa human CEACAM5
T1 sequence: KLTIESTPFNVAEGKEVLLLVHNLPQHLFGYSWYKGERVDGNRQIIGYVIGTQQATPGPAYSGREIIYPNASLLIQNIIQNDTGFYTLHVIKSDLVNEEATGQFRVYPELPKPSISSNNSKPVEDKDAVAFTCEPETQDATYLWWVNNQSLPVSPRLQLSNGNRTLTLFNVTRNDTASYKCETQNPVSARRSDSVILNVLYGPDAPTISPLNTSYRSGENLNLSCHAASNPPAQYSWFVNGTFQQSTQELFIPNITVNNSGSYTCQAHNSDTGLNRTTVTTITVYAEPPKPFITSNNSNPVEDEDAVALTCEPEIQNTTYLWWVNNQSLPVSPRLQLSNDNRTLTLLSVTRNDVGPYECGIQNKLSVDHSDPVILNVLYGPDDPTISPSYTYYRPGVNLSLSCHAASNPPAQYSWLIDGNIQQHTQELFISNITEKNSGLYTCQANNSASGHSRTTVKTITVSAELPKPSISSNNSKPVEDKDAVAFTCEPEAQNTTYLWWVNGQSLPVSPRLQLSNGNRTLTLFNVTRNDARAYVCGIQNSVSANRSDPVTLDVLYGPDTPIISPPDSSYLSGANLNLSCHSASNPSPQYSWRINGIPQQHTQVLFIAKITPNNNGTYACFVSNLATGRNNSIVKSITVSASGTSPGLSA
Procedure: (§1) For FACS experiments HeLa wild type cells were cultured in RPMI-1640, 10% FCS, while CEACAM-receptor transfected HeLa cells received in addition 0.5% Gentamycin (stock 10 mg/ml, Fa. PAA) and 200 μg/ml Hygromycin B (stock 50 mg/ml, Invitrogen). Cells were washed 3 times with PBS w/o Ca²⁺/Mg²⁺ and were detached from the culture plate non-enzymatically with EDTA dissociation buffer (Gibco). Cells were washed in cold FACS buffer (PBS w/o Ca²⁺/Mg²⁺ and heat-inactivated 3% FCS) and were counted using a countess machine (Invitrogen). 10⁵ cells per well were plated and incubated with the respective primary antibody (5 μg/ml) for 1 h at 4° C. on a plate shaker. […] After 2 times washing the cells were resuspended in 100 μl FACS buffer and were analysed on a FACS Canto II machine (Beckton Dickinson) or a FACS Array (Beckton Dickinson).
(§2) For EC₅₀ analysis, the primary antibodies were used at increasing concentrations in a range from 0.1 nM to 100 nM. Half maximal binding values (EC₅₀) were determined by plotting the median fluorescence intensity signal against the concentration (logarithmic scale). Curve fitting of data was performed using the Graph Pad prism analysis software.

[2] = target: T2, human CEACAM6, full-length, on cells (human, UniProt P40199 35-320)
T2 construct: used both for transfected HeLa cells and for tumor cell lines that express CEACAM6 endogenously; also called TPP-4639; HeLa human CEACAM6
T2 sequence: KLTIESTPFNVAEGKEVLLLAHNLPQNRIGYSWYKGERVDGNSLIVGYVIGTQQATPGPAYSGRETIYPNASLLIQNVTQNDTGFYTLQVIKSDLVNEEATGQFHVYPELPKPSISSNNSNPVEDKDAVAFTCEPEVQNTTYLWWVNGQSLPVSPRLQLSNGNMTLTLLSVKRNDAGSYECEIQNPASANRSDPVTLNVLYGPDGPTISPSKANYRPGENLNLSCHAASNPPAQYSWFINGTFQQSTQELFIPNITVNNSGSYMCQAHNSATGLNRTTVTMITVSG
Procedure: as §1, §2

[3] = target: T3, human CEACAM8, full-length, on transfected HeLa cells (human, UniProt P31997 35-320)
T3 construct: also called TPP-4190; HeLa human CEACAM8
T3 sequence: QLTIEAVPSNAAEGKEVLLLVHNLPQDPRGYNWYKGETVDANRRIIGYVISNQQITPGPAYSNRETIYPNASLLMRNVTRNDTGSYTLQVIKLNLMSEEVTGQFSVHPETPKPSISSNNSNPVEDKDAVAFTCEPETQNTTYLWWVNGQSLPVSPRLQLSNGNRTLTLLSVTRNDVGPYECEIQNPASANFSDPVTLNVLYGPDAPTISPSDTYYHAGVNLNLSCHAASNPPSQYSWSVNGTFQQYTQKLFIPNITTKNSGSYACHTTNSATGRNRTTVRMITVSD
Procedure: as §1, §2

[4] = target: T4, human CEACAM1, full-length, on transfected HeLa cells (human, UniProt P13688 35-526)
T4 construct: also called TPP-4185; HeLa human CEACAM1
T4 sequence: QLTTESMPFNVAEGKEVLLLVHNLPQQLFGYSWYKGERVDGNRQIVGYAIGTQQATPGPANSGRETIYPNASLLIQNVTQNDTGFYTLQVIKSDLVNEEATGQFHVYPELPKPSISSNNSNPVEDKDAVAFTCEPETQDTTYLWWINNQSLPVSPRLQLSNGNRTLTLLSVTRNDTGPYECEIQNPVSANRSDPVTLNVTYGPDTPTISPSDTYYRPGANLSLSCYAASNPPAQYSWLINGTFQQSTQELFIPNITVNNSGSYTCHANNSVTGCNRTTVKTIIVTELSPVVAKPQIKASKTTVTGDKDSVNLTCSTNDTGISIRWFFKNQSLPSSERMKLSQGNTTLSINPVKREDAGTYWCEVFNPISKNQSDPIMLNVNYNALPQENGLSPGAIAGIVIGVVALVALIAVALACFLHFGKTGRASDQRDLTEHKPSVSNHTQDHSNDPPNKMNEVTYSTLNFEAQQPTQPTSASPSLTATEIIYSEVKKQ
Procedure: as §1, §2

[5] = target: T5, human CEACAM3, full-length, on transfected HeLa cells (human, UniProt P40198 35-252)
T5 construct: also called TPP-4187; HeLa human CEACAM3
T5 sequence: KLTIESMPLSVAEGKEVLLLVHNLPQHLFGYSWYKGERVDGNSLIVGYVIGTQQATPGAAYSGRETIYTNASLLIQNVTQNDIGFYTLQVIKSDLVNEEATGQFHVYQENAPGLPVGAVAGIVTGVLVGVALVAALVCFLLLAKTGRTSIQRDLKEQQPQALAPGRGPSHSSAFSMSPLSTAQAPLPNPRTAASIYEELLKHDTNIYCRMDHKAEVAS
Procedure: as §1, §2

binding result [1]: no binding (tested: 5 µg/ml)
EC50 [2]: 600 pM
FACS median fluorescence [2]: 10 to 100 medianfluorescence
binding result [3]: no binding (tested: 5 µg/ml)
binding result [4]: no binding (tested: 5 µg/ml)
binding result [5]: no binding (tested: 5 µg/ml)
B1: TPP-3323 (antibody, human IgG2, kappa, V domains shown)
VH: QVTLKESGPGILQPSQTLSLTCSFSGFSLTTYGIGVGWIRQPSGKGLEWLAHIWWNDNKYYNTALKSRLTISKDTSNNQVFLKIASVDTADTATYYCARISLPYFDYWGQGTTLTVSS
VL: DIVMTQSQKFMSTSVGDRVSITCKASQNVGTAVAWYQQKPGQSPKLLIYSASNRYTGVPDRFTGSGSGTDFTLTISNMQSEDLADYFCQQYNNYPLTFGAGTKLELKR
notes: human IgG2 chimera; also called TPP-3187X1-hIgG2; hIgG2 chimera of TPP-3187

binding result [1]: no binding (tested: 5 µg/ml)
EC50 [2]: 450 pM
FACS median fluorescence [2]: 10 to 100 medianfluorescence
binding result [3]: no binding (tested: 5 µg/ml)
binding result [4]: no binding (tested: 5 µg/ml)
binding result [5]: no binding (tested: 5 µg/ml)
B2: TPP-3308 (antibody, human IgG2, kappa, V domains shown)
VH: B1 VH with T30S, G46D
VL: B1 VL with N92S, N93S
notes: human IgG2 chimera; also called TPP-2971X1-hIgG2Kappa; hIgG2 chimera of TPP-2971

binding result [1]: no binding (tested: 5 µg/ml)
EC50 [2]: 1000 pM
binding result [3]: no binding (tested: 5 µg/ml)
binding result [4]: no binding (tested: 5 µg/ml)
binding result [5]: no binding (tested: 5 µg/ml)
B3: TPP-3714 (antibody, human IgG2, kappa)
heavy: QVTLRESGPALVKPTQTLTLTCTFSGFSLSTYGIGVGWIRQPPGKALEWLAHIWWNDNKYYSTSLKTRLTISKDTSKNQVVLTMTNMDPVDTATYYCARISLPYFDYWGQGTLVTVSSASTKGPSVFPLAPCSRSTSESTAALGCLVKDYFPEPVTVSWNSGALTSGVHTFPAVLQSSGLYSLSSVVTVPSSNFGTQTYTCNVDHKPSNTKVDKTVERKCCVECPPCPAPPVAGPSVFLFPPKPKDTLMISRTPEVTCVVVDVSHEDPEVQFNWYVDGVEVHNAKTKPREEQFNSTFRVVSVLTVVHQDWLNGKEYKCKVSNKGLPAPIEKTISKTKGQPREPQVYTLPPSREEMTKNQVSLTCLVKGFYPSDIAVEWESNGQPENNYKTTPPMLDSDGSFFLYSKLTVDKSRWQQGNVFSCSVMHEALHNHYTQKSLSLSPG
light: DIQLTQSPSFLSASVGDRVTITCKASQNVGTAVAWYQQKPGKAPKLLIYSASNRYTGVPSRFSGSGSGTEFTLTISSLQPEDFATYYCQQYSSYPLTFGGGTKVEIKRTVAAPSVFIFPPSDEQLKSGTASVVCLLNNFYPREAKVQWKVDNALQSGNSQESVTEQDSKDSTYSLSSTLTLSKADYEKHKVYACEVTHQGLSSPVTKSFNRGEC
notes: humanized from TPP-2971, human IgG2; also called TPP-2971HU2-hIgG2Kappa
